According to article PMC6092189 (Nature structural & molecular biology, 2018):
Numbering of substitutions follows the chain as printed. Numbers in names are those of the source.

B1: recombinant human β-cardiac myosin subfragment-1 (short S1, sS1, MYH7 residues 1-808) with C-termina (complex)
chain 1: MGDSEMAVFGAAAPYLRKSEKERLEAQTRPFDLKKDVFVPDDKQEFVKAKIVSREGGKVTAETEYGKTVTVKEDQVMQQNPPKFDKIEDMAMLTFLHEPAVLYNLKDRYGSWMIYTYSGLFCVTVNPYKWLPVYTPEVVAAYRGKKRSEAPPHIFSISDNAYQYMLTDRENQSILITGESGAGKTVNTKRVIQYFAVIAAIGDRSKKDQSPGKGTLEDQIIQANPALEAFGNAKTVRNDNSSRFGKFIRIHFGATGKLASADIETYLLEKSRVIFQLKAERDYHIFYQILSNKKPELLDMLLITNNPYDYAFISQGETTVASIDDAEELMATDNAFDVLGFTSEEKNSMYKLTGAIMHFGNMKFKLKQREEQAEPDGTEEADKSAYLMGLNSADLLKGLCHPRVKVGNEYVTKGQNVQQVIYATGALAKAVYERMFNWMVTRINATLETKQPRQYFIGVLDIAGFEIFDFNSFEQLCINFTNEKLQQFFNHHMFVLEQEEYKKEGIEWTFIDFGMDLQACIDLIEKPMGIMSILEEECMFPKATDMTFKAKLFDNHLGKSANFQKPRNIKGKPEAHFSLIHYAGIVDYNIIGWLQKNKDPLNETVVGLYQKSSLKLLSTLFANYAGADAPIEKGKGKAKKGSSFQTVSALHRENLNKLMTNLRSTHPHFVRCIIPNETKSPGVMDNPLVMHQLRCNGVLEGIRICRKGFPNRILYGDFRQRYRILNPAAIPEGQFIDSRKGAEKLLSSLDIDHNQYKFGHTKVFFKAGLLGLLEEMRDERLSRIITRIQAQSRGVLARMEYKKLLERR
chain 2: not shown
B2: human β-cardiac myosin sS1-eGFP (MYH7 1-808) S532P with essential light chain (complex)
chain 1: B1 chain 1 with S532P
chain 2: not shown
B3: human β-cardiac myosin sS1-eGFP (MYH7 1-808) A223T with essential light chain (complex)
chain 1: B1 chain 1 with A223T
chain 2: not shown
B4: human β-cardiac myosin sS1-eGFP (MYH7 1-808) H251N with essential light chain (complex)
chain 1: B1 chain 1 with H251N
chain 2: not shown
B5: human β-cardiac myosin sS1-eGFP (MYH7 1-808) R237W with essential light chain (complex)
chain 1: B1 chain 1 with R237W
chain 2: not shown
B6: human β-cardiac myosin sS1-eGFP (MYH7 1-808) D239N with essential light chain (complex)
chain 1: B1 chain 1 with D239N
chain 2: not shown

biological target: TMR-phalloidin-labelled biotinylated actin filaments (UniProt P68135 1-377, biotin (~1 biotin per monomer)); experiment: optical trap, harmonic force spectroscopy

| k0, detachment rate from actin at zero load [s⁻¹] | Binder |
| --- | --- |
| 102 | B1 |
| 80 | B2 |
| 104 | B3 |
| 152 | B4 |
| 155 | B5 |
| 140 | B6 |
